Values joined by “and” are separate entries in the source; they are usually repeats but may differ in a detail not shown here. Identical values can stand only once. Where no end group is shown, it is not given here. The star is where a group is joined. Biotin = O=C1N[C@H]2[C@H](CS[C@H]2CCCCC(=O)*)N1
How the values were obtained:
[1] = biological target: T1, peptide 1-1, bio-ASMTLEPNKD LRPGDTVTI (145-164); test: ELISA on biotin-labeled alanine-scan peptides
T1 construct: Alanine-scan variant of peptide 1
T1 peptide: Biotin-ASMTLEPNKDLRPGDTVTI

[2] = biological target: T2, peptide 1-2, bio-P AMTLEPNKD LRPGDTVTI (145-164); test: ELISA on biotin-labeled alanine-scan peptides
T2 construct: Alanine-scan variant of peptide 1
T2 peptide: Biotin-PAMTLEPNKDLRPGDTVTI

[3] = biological target: T3, peptide 1-3, bio-PS ATLEPNKD LRPGDTVTI (145-164); test: ELISA on biotin-labeled alanine-scan peptides
T3 construct: Alanine-scan variant of peptide 1
T3 peptide: Biotin-PSATLEPNKDLRPGDTVTI

[4] = biological target: T4, peptide 1-4, bio-PSM ALEPNKD LRPGDTVTI (145-164); test: ELISA on biotin-labeled alanine-scan peptides
T4 construct: Alanine-scan variant of peptide 1
T4 peptide: Biotin-PSMALEPNKDLRPGDTVTI

[5] = biological target: T5, peptide 1-5, bio-PSMT AEPNKD LRPGDTVTI (145-164); test: ELISA on biotin-labeled alanine-scan peptides
T5 construct: Alanine-scan variant of peptide 1
T5 peptide: Biotin-PSMTAEPNKDLRPGDTVTI

[6] = biological target: T6, peptide 1-6, bio-PSMTL APNKD LRPGDTVTI (145-164); test: ELISA on biotin-labeled alanine-scan peptides
T6 construct: Alanine-scan variant of peptide 1
T6 peptide: Biotin-PSMTLAPNKDLRPGDTVTI

[7] = biological target: T7, peptide 1-8, bio-PSMTLEP AKD LRPGDTVTI (145-164); test: ELISA on biotin-labeled alanine-scan peptides
T7 construct: Alanine-scan variant of peptide 1
T7 peptide: Biotin-PSMTLEPAKDLRPGDTVTI

[8] = biological target: T8, peptide 1-9, bio-PSMTLEPN AD LRPGDTVTI (145-164); test: ELISA on biotin-labeled alanine-scan peptides
T8 construct: Alanine-scan variant of peptide 1
T8 peptide: Biotin-PSMTLEPNADLRPGDTVTI

[9] = biological target: T9, peptide 1-13, bio-PSMTLEPNKD LR AGDTVTI (145-164); test: ELISA on biotin-labeled alanine-scan peptides
T9 construct: Alanine-scan variant of peptide 1
T9 peptide: Biotin-PSMTLEPNKDLRAGDTVTI

[10] = biological target: T10, peptide 1-16, bio-PSMTLEPNKD LRPGD AVTI (145-164); test: ELISA on biotin-labeled alanine-scan peptides
T10 construct: Alanine-scan variant of peptide 1
T10 peptide: Biotin-PSMTLEPNKDLRPGDAVTI

[11] = biological target: T11, peptide 1-17, bio-PSMTLEPNKD LRPGDT ATI (145-164); test: ELISA on biotin-labeled alanine-scan peptides
T11 construct: Alanine-scan variant of peptide 1
T11 peptide: Biotin-PSMTLEPNKDLRPGDTATI

[12] = biological target: T12, peptide 1-18, bio-PSMTLEPNKD LRPGDTV AI (145-164); test: ELISA on biotin-labeled alanine-scan peptides
T12 construct: Alanine-scan variant of peptide 1
T12 peptide: Biotin-PSMTLEPNKDLRPGDTVAI

[13] = biological target: T13, peptide 1-19, bio-PSMTLEPNKD LRPGDTVT A (145-164); test: ELISA on biotin-labeled alanine-scan peptides
T13 construct: Alanine-scan variant of peptide 1
T13 peptide: Biotin-PSMTLEPNKDLRPGDTVTA

[14] = biological target: T14, human CD276 on the surface of tumor cells (human, UniProt Q5ZPR3 29-534); test: flow cytometry on human renal cancer cells A498
T14 construct: whole, on cells; Endogenous expression on human tumor cell lines; also called CD276 on A498 cells
T14 sequence (looked up): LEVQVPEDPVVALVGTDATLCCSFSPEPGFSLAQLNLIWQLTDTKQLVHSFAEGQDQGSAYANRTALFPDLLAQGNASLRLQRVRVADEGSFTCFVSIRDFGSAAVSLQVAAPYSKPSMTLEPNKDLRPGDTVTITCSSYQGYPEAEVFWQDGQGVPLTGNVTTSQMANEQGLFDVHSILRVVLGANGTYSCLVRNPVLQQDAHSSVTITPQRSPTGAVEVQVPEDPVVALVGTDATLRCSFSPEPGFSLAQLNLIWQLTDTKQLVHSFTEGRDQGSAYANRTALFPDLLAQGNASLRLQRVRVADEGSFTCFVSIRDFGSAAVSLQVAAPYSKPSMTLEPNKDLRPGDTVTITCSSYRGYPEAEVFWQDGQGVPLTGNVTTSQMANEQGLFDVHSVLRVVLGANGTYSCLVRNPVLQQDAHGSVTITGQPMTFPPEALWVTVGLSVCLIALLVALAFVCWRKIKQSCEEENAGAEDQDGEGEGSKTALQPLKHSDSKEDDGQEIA
Method: In this experiment, human renal cancer cells A498 were used as the target cells. […] The cells were washed twice with PBS to remove those secondary antibody unbinding to the cells and then resuspended in 100 μL PBS.

[15] = biological target: T15, C2-type 1-Fc (human); test: Western blot on Fc fusion proteins of the domains
T15 construct: Expressed in Expi-293F cells, purified on Protein A, tested by Western blot; also called Ig-like C2-type 1 (Domain 2) of human CD276-ECD linked to human Fc; second functional domain of human CD276-ECD
T15 sequence (chain, as listed by the source limits assumed): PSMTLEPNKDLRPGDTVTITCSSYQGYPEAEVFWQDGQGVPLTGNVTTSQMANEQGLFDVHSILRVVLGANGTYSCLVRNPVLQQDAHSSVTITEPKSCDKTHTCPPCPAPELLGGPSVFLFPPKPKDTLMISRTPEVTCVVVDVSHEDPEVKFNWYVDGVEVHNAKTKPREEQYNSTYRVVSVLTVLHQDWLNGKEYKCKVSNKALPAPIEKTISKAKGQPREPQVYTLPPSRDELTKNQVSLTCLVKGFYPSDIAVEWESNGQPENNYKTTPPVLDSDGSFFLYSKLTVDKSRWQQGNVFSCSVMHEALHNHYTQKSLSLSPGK

[16] = biological target: T16, recombinant human CD276-ECD protein (human, UniProt Q5ZPR3 29-255); test: indirect ELISA, plate coated with human CD276-ECD
T16 construct: Purchased from Acro BIOSYSTEMS; Used native (ELISA) and reduced and denatured (Western blot); also called B7-H3
T16 sequence: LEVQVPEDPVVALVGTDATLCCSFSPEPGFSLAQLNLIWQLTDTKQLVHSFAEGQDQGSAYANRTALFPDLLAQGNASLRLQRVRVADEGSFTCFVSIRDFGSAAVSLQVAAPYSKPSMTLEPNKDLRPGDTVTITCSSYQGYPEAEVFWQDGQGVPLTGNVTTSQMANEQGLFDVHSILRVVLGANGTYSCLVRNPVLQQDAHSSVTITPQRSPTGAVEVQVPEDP

[17] = biological target: T17, mouse CD276-ECD (mouse, UniProt Q8VE98 29-244); test: indirect ELISA, plate coated with 2 µg/mL mouse CD276-ECD
T17 construct: Purchased from Acro BIOSYSTEMS; also called mouse CD276-ECD protein
T17 sequence: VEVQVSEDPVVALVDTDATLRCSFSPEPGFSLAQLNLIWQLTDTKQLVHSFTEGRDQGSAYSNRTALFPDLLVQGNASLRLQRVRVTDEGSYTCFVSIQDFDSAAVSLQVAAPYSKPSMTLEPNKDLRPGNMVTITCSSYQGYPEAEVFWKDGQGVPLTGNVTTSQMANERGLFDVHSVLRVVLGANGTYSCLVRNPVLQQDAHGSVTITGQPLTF
Method: (§1) The specific method was as follows: The plates were pre-coated with crab-eating macaque and mouse CD276-ECD proteins diluted to 2 μg/mL in the coating solution (50 mM carbonate coating buffer, pH 9.6) and incubated at 4° C. overnight. The plates were then blocked with 5% skim milk powder at 37° C. for 2 hours. Afterward, the plates were washed 3 times with PBST, and the to-be-tested antibody, diluted in 1% BSA-PBST at various gradients, was added to the blocked plates at 100 μL per well. The plates were incubated at 37° C. for 1 hour. After washing the plates 3 times with PBST, HRP-conjugated goat anti-mouse IgG secondary antibody (purchased from Millipore) was added, and the plates were incubated at 37° C. for 30 minutes. After 3 more washes with PBST, residual droplets were removed by blotting on absorbent paper. Then, 100 μL of TMB substrate (purchased from KPL) was added to each well, and the plates were incubated at room temperature (20±5° C.) in the dark for 5 minutes. Finally, 50 μL of 2 M H2SO4 was added to each well to terminate the substrate reaction, and the OD value at 450 nm was read using a microplate reader to analyze the binding ability of the to-be-tested antibody to the target antigens, i.e., crab-eating macaque and mouse CD276-ECD proteins.

[18] = biological target: T18, crab-eating macaque CD276-ECD (crab-eating macaque, UniProt Q5ZPR3 217-452 (human entry)); test: indirect ELISA, plate coated with crab-eating macaque CD276-ECD
T18 construct: Purchased from Acro BIOSYSTEMS; also called crab-eating macaque CD276-ECD protein; crab-eating macaque CD276-ECD antigen
T18 chain: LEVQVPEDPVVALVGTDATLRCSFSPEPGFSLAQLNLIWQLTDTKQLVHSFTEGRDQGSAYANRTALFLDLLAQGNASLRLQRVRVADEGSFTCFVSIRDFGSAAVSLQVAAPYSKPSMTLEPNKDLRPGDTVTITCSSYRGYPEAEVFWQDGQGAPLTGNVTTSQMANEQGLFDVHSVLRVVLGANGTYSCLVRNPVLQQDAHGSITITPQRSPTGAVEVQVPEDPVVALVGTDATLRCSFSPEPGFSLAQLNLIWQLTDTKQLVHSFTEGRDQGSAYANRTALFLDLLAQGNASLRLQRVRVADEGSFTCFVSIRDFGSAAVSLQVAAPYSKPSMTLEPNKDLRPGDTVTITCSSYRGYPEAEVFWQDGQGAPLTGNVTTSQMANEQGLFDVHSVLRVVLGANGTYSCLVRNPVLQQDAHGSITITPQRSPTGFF
Method: as §1

binding result [1]: binds
binding result [2]: binds
binding result [3]: binds
binding result [4]: binds
binding result [5]: binds
binding result [6]: binds
binding result [7]: binds
binding result [8]: binds
binding result [9]: binds
binding result [10]: binds
binding result [11]: binds
binding result [12]: binds
binding result [13]: binds
EC50 [14]: 0.0592 µg/mL and 0.39 nM
binding result [15]: binds
EC50 [16]: 0.0384 µg/mL and 0.26 nM
binding result [17]: no binding
EC50 [18]: 0.0302 µg/mL and 0.2 nM
B1: murine monoclonal antibody 147# (antibody, V domains shown)
VH: QVQLKQSGIELVRPGASVKLSCKTSGYIFTADWIYWVKQRSGQGLEWIGRIYPGVDSTYYNEKFKDKAILTADKSSSTAYMQLNSLKSEDSAVYFCARGGEVRRDFYALDYWGQGTSVTVSS
VL: NIVMTQSPESMSMSLGERVTLSCKASENVGTYVSWYQQKPEQSPKLLIYGASNRYTGVPARFTGSGSATDFTLTISSVQAEDLADYHCGQRYSYPFTFGSGTKLEIK
notes: Murine antibody purified from hybridoma supernatant by Protein G and detected with anti-mouse IgG

Source: patent US20250368740A1 (SHENZHEN BAISHITONG TECHNOLOGY DEVELOPMENT, published 2025)
